# Measured values from patent publication US20090311265A1.
# Experiments:
# [1] = biological target: full-length HA from isolate A/Vietnam/1194/2004 (H5N1TV) on PER.C6 cells (influenza A virus A/Vietnam/1194/2004 (H5N1)) (UniProt Q80A26); test: flow cytometry, transfected PER.C6 cells
# [2] = biological target: recombinant HA, subtype H7 (A/Netherlands/219/03 (H7N7)) (influenza A virus A/Netherlands/219/03 (H7N7)); test: ELISA, coated HA, IgG 5 µg/ml
# [3] = biological target: recombinant HA, subtype H5 (A/Vietnam/1203/2004 (H5N1)) (influenza A virus A/Vietnam/1203/2004 (H5N1)) (UniProt Q80A26); test: ELISA, coated HA, IgG 5 µg/ml
# [4] = biological target: recombinant HA, subtype H9 (A/Hong Kong/1073/99 (H9N2)) (influenza A virus A/Hong Kong/1073/99 (H9N2)); test: ELISA, coated HA, IgG 5 µg/ml
# [5] = biological target: recombinant HA, subtype H3 (A/Wyoming/3/2003(H3N2)) (influenza A virus A/Wyoming/3/2003 (H3N2)); test: ELISA, coated HA, IgG 5 µg/ml
# [6] = biological target: recombinant HA, subtype H1 (A/New Caledonia/20/99 (H1N1)) (influenza A virus A/New Caledonia/20/99 (H1N1)) (UniProt Q289M7); test: ELISA, coated HA, IgG 5 µg/ml
# [7] = biological target: full-length HA from isolate A/Vietnam/1194/2004 (H5N1TV) on PER.C6 cells (influenza A virus A/Vietnam/1194/2004 (H5N1)) (UniProt Q80A26); test: flow cytometry, transfected PER.C6 cells, separate experiment
Substance,flow cytometry signal at 0.1 µg/ml [1],flow cytometry signal at 1 µg/ml [1],flow cytometry signal at 10 µg/ml [1],OD 492 nm [2],OD 492 nm [3],OD 492 nm [4],OD 492 nm [5],OD 492 nm [6],flow cytometry signal at 0.1 µg/ml [7],flow cytometry signal at 1 µg/ml [7],flow cytometry signal at 10 µg/ml [7]
CR3014 (antibody),6.21,10,13.1,0.17 OD 492 nm,0.09 OD 492 nm,0.16 OD 492 nm,0.07 OD 492 nm,0.08 OD 492 nm,10.5,7.95,9.15
CR6261 (antibody),–,–,–,0.31 OD 492 nm,–,–,–,–,–,–,–
